{
  "source": "patent US20030119072A1",
  "about": "(SIGNAL PHARMACEUTICALS, published 2003)",
  "key": {"GST-WWP1.4 [1]": {"molecular_target": "T1, GST-WWP1.4", "T1 construct": "Coated on polystyrene plates; also called WWP1 WW domain 4; not shown: glutathione S-transferase (GST) fusion partner", "assay": "TRF (DELFIA) plate assay, GST-WW domain coated at 30 µg/mL, titrated with biotinylated peptide"}, "GST-WWP1.2 [2]": {"molecular_target": "T2, GST-WWP1.2", "T2 construct": "Coated on polystyrene plates; also called second WW domain of WWP1; WWP1 WW domain 2; not shown: glutathione S-transferase (GST) fusion partner", "T2 sequence (chain, as listed by the source)": "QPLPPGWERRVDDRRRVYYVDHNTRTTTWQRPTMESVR", "assay": "TRF (DELFIA) plate assay, GST-WW domain coated at 30 µg/mL, titrated with biotinylated peptide"}, "GST-WWP1.3 [3]": {"molecular_target": "T3, GST-WWP1.3", "T3 construct": "Coated on polystyrene plates; also called WWP1 WW domain 3; not shown: glutathione S-transferase (GST) fusion partner", "T3 sequence (chain, as listed by the source)": "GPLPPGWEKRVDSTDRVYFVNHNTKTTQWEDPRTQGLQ", "assay": "TRF (DELFIA) plate assay, GST-WW domain coated at 30 µg/mL, titrated with biotinylated peptide"}, "GST-WWP1.2 [4]": {"molecular_target": "T2, GST-WWP1.2", "assay": "TRF (DELFIA) plate assay, peptide titration of coated GST-WW domain, GST background subtracted; nonlinear least squares fit and Scatchard analysis", "description": "FIGS. 8A-8B are graphs illustrating the binding of increasing concentrations of a Smad7 PY motif peptide to WWP1 WW domain peptides. In FIG. 8A, binding to four GST fusion peptides (GST-WWP1.1, GST-WWP1.2, GST-WWP1.3 and GST-WWP1.4) is shown, as well as binding to RSP5.2 WW domain. WW domain peptides were coated on polystyrene plates at the indicated receptor coating concentrations, and blocked with BSA. Biotinylated PY motif peptide was then added at the indicated concentrations. Binding was assessed using a time-resolved fluorescence assay and is shown as cps. FIG. 8B presents a Scatchard analysis of the Smad7 PY motif to WWP1.2 and WWP1.4, as indicated.\nA detailed evaluation of the interactions of Smad 7 with the WWP1 WW domains and the second WW domain from RSP5 was undertaken. GST was used to correct for nonspecific background interactions. The peptide titration of the WW domains was evaluated by a nonlinear, least squares fit of the data and Scatchard analysis (FIGS. 8A-8B)."}, "GST-WWP1.4 [5]": {"molecular_target": "T1, GST-WWP1.4", "assay": "TRF (DELFIA) plate assay, GST-WW domain coated at 0-10 µg/mL, biotinylated peptide 30 µM", "description": "(§1) Each domain was individually expressed as a GST fusion protein. A TRF binding assay was used to evaluate interactions of PY motif peptides with these domains or GST alone. WW domains were bound to a 96-well polystyrene assay plate (Costar) overnight at 4° C. in a 200 mM carbonate buffer (Pierce, Rockford, Ill.) at different concentrations (0, 1, 3, 10 μg/mL). Unbound WW domain was washed away with distilled, deionized water and the plates were blocked with 1% BSA/carbonate buffer for 2 hours at room temperature. The plates were then washed with Tris/Tween buffer: 50 mM Tris pH 7.5, 100 mM NaCl, 1 mM EDTA, 1% BSA, 1 mM DTT, 0.1% Tween20, protease inhibitor cocktail (Boehringer-Mannheim).\n(§2) These biotinylated peptides were solvated in Tris/Tween buffer and added to the assay plates (30 μM). The plates were incubated at 4° C. for varying amounts of capture time. The plates were then washed with PBS/0.1% Triton X100 and probed for 1 hour at room temperature with 1 μg/mL Europium-labeled streptavidin (DELFIA; Wallac Oy, Turku, Finland) in DELFIA Assay Buffer/0.1% Triton X100. The unbound Europium-labeled streptavidin was washed with PBS/0.1% Triton X100. Europium was released for time-resolved fluorescence measurements with the DELFIA Enhancement Buffer. Measurements were made on either the DELFIA 1234 or Victor fluorometers."}, "GST-WWP1.2 [6]": {"molecular_target": "T2, GST-WWP1.2", "assay": "TRF (DELFIA) plate assay, GST-WW domain coated at 0-10 µg/mL, biotinylated peptide 30 µM", "description": "as §1, §2"}, "GST-WWP1.3 [7]": {"molecular_target": "T3, GST-WWP1.3", "assay": "TRF (DELFIA) plate assay, GST-WW domain coated at 0-10 µg/mL, biotinylated peptide 30 µM", "description": "as §1, §2"}, "GST alone": {"molecular_target": "T4, GST alone (UniProt P08515 1-218 = GST)", "T4 construct": "Control coated on plates in the TRF assay", "T4 sequence (P08515 whole entry)": "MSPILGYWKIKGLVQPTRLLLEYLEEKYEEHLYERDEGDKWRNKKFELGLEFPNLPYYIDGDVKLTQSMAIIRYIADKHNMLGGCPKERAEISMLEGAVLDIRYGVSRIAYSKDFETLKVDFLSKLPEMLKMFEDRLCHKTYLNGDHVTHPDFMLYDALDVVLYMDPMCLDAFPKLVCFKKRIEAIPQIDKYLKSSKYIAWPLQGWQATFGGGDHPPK", "assay": "TRF (DELFIA) plate assay, GST coated, biotinylated peptide in solution", "description": "as §1, §2"}, "GST-WWP1.1 [8]": {"molecular_target": "T5, GST-WWP1.1", "T5 construct": "also called WWP1 WW domain 1; not shown: glutathione S-transferase (GST) fusion partner", "T5 sequence (chain, as listed by the source)": "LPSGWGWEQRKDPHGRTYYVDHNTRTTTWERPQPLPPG", "assay": "TRF (DELFIA) plate assay, GST-WW domain coated, biotinylated peptide in solution", "description": "as §1, §2"}, "GST-WWP1.4 [9]": {"molecular_target": "T1, GST-WWP1.4", "assay": "TRF (DELFIA) plate assay, GST-WW domain coated, biotinylated peptide in solution", "description": "as §1, §2"}, "GST-WWP1.2 [10]": {"molecular_target": "T2, GST-WWP1.2", "assay": "TRF (DELFIA) plate assay, GST-WW domain coated, biotinylated peptide in solution", "description": "as §1, §2"}, "GST-WWP1.3 [11]": {"molecular_target": "T3, GST-WWP1.3", "assay": "TRF (DELFIA) plate assay, GST-WW domain coated, biotinylated peptide in solution", "description": "as §1, §2"}, "GST-WWP1.1 [12]": {"molecular_target": "T5, GST-WWP1.1", "assay": "TRF (DELFIA) plate assay, GST-WW domain coated at 30 µg/mL, titrated with biotinylated peptide"}},
  "note": "Where no end group is shown, it is not given here. The star is where a group is joined. Biotin = O=C1N[C@H]2[C@H](CS[C@H]2CCCCC(=O)*)N1; Ahx = NCCCCCC(=O)O",
  "data": [
    {"binder": "PADTPPPAYMPPDD (not fully specified (N-terminus); also: biotin with C6 linker, end not given here, also called Smad 5 peptide)", "note": "[Smad5 PY motif peptide PADTPPPAYMPPDD]", "values": [
      {"measurement": "binding result", "setting": "GST-WWP1.4 [1]", "value": "binds"},
      {"measurement": "binding result", "setting": "GST-WWP1.2 [2]", "value": "binds"},
      {"measurement": "binding result", "setting": "GST-WWP1.3 [3]", "value": "binds"}
    ]},
    {"binder": "GPESPPPPYSRLSP (not fully specified (N-terminus); also: biotin with C6 linker, end not given here, also called Smad 6 peptide)", "note": "[Smad6 PY motif peptide GPESPPPPYSRLSP]", "values": [
      {"measurement": "binding result", "setting": "GST-WWP1.4 [1]", "value": "binds"},
      {"measurement": "binding result", "setting": "GST-WWP1.2 [2]", "value": "binds"},
      {"measurement": "binding result", "setting": "GST-WWP1.3 [3]", "value": "binds"}
    ]},
    {"binder": "ELESPPPPYSRYPM (not fully specified (N-terminus); also: biotin with C6 linker, end not given here, also called Smad 7 peptide)", "note": "[Smad7 PY motif peptide ELESPPPPYSRYPM]", "values": [
      {"measurement": "Kd", "setting": "GST-WWP1.2 [4]", "value": 2400, "unit": "nM"}
    ]},
    {"binder": "{Biotin-Ahx}-HPGTPPPPYTVGPG-NH2 (SMILES CC(C)[C@H](NC(=O)[C@@H](NC(=O)[C@H](Cc1ccc(O)cc1)NC(=O)[C@@H]1CCCN1C(=O)[C@@H]1CCCN1C(=O)[C@@H]1CCCN1C(=O)[C@@H]1CCCN1C(=O)[C@@H](NC(=O)CNC(=O)[C@@H]1CCCN1C(=O)[C@H](Cc1c[nH]cn1)NC(=O)CCCCCNC(=O)CCCC[C@@H]1SC[C@@H]2NC(=O)N[C@@H]21)[C@@H](C)O)[C@@H](C)O)C(=O)NCC(=O)N1CCC[C@H]1C(=O)NCC(N)=O, also called WBP1 peptide)", "note": "[WBP1 PY motif peptide, Biotin-Ahx-HPGTPPPPYTVGPG-CONH2]", "values": [
      {"measurement": "binding result", "setting": "GST-WWP1.4 [5]", "value": "binds"},
      {"measurement": "binding result", "setting": "GST-WWP1.2 [6]", "value": "binds"},
      {"measurement": "binding result", "setting": "GST-WWP1.3 [7]", "value": "binds"},
      {"measurement": "binding result", "setting": "GST alone", "value": "no binding (tested: 30 µM peptide)"}
    ]},
    {"binder": "{Biotin-Ahx}-IPGTPPPNYDSLRL-NH2 (SMILES CC[C@H](C)[C@H](NC(=O)CCCCCNC(=O)CCCC[C@@H]1SC[C@@H]2NC(=O)N[C@@H]21)C(=O)N1CCC[C@H]1C(=O)NCC(=O)N[C@H](C(=O)N1CCC[C@H]1C(=O)N1CCC[C@H]1C(=O)N1CCC[C@H]1C(=O)N[C@@H](CC(N)=O)C(=O)N[C@@H](Cc1ccc(O)cc1)C(=O)N[C@@H](CC(=O)O)C(=O)N[C@@H](CO)C(=O)N[C@@H](CC(C)C)C(=O)N[C@@H](CCCNC(=N)N)C(=O)N[C@@H](CC(C)C)C(N)=O)[C@@H](C)O)", "note": "[Nedd PY motif peptide, Biotin-Ahx-IPGTPPPNYDSLRL-CONH2]", "values": [
      {"measurement": "binding result", "setting": "GST alone", "value": "no binding (tested: 30 µM peptide)"},
      {"measurement": "binding result", "setting": "GST-WWP1.1 [8]", "value": "no binding (tested: 30 µM peptide)"},
      {"measurement": "binding result", "setting": "GST-WWP1.4 [9]", "value": "no binding (tested: 30 µM peptide)"},
      {"measurement": "binding result", "setting": "GST-WWP1.2 [10]", "value": "no binding (tested: 30 µM peptide)"},
      {"measurement": "binding result", "setting": "GST-WWP1.3 [11]", "value": "no binding (tested: 30 µM peptide)"}
    ]},
    {"binder": "{Biotin-Ahx}-IPGTPPPNHDSLRL-NH2 (SMILES CC[C@H](C)[C@H](NC(=O)CCCCCNC(=O)CCCC[C@@H]1SC[C@@H]2NC(=O)N[C@@H]21)C(=O)N1CCC[C@H]1C(=O)NCC(=O)N[C@H](C(=O)N1CCC[C@H]1C(=O)N1CCC[C@H]1C(=O)N1CCC[C@H]1C(=O)N[C@@H](CC(N)=O)C(=O)N[C@@H](Cc1c[nH]cn1)C(=O)N[C@@H](CC(=O)O)C(=O)N[C@@H](CO)C(=O)N[C@@H](CC(C)C)C(=O)N[C@@H](CCCNC(=N)N)C(=O)N[C@@H](CC(C)C)C(N)=O)[C@@H](C)O)", "note": "[Mutant Nedd PY motif peptide, Biotin-Ahx-IPGTPPPNHDSLRL-CONH2]", "values": [
      {"measurement": "binding result", "setting": "GST alone", "value": "no binding (tested: 30 µM peptide)"},
      {"measurement": "binding result", "setting": "GST-WWP1.1 [8]", "value": "no binding (tested: 30 µM peptide)"},
      {"measurement": "binding result", "setting": "GST-WWP1.4 [9]", "value": "no binding (tested: 30 µM peptide)"},
      {"measurement": "binding result", "setting": "GST-WWP1.2 [10]", "value": "no binding (tested: 30 µM peptide)"},
      {"measurement": "binding result", "setting": "GST-WWP1.3 [11]", "value": "no binding (tested: 30 µM peptide)"}
    ]},
    {"binder": "{Biotin-Ahx}-PADTPPPAYLPPED-NH2 (SMILES CC(C)C[C@H](NC(=O)[C@H](Cc1ccc(O)cc1)NC(=O)[C@H](C)NC(=O)[C@@H]1CCCN1C(=O)[C@@H]1CCCN1C(=O)[C@@H]1CCCN1C(=O)[C@@H](NC(=O)[C@H](CC(=O)O)NC(=O)[C@H](C)NC(=O)[C@@H]1CCCN1C(=O)CCCCCNC(=O)CCCC[C@@H]1SC[C@@H]2NC(=O)N[C@@H]21)[C@@H](C)O)C(=O)N1CCC[C@H]1C(=O)N1CCC[C@H]1C(=O)N[C@@H](CCC(=O)O)C(=O)N[C@@H](CC(=O)O)C(N)=O, also called Smad 1 PY peptide; Biotin-Ahx-PADTPPPAYLPPED-CONH2)", "note": "[Smad1 PY motif peptide PADTPPPAYLPPED]", "values": [
      {"measurement": "binding result", "setting": "GST-WWP1.1 [12]", "value": "no binding"},
      {"measurement": "binding result", "setting": "GST-WWP1.4 [1]", "value": "no binding"},
      {"measurement": "binding result", "setting": "GST-WWP1.2 [2]", "value": "no binding"},
      {"measurement": "binding result", "setting": "GST-WWP1.3 [3]", "value": "no binding"}
    ]},
    {"binder": "IPETPPPGYISEDG (not fully specified (N-terminus); also: biotin with C6 linker, end not given here, also called Smad 2 peptide)", "note": "[Smad2 PY motif peptide IPETPPPGYISEDG]", "values": [
      {"measurement": "binding result", "setting": "GST-WWP1.1 [12]", "value": "no binding"},
      {"measurement": "binding result", "setting": "GST-WWP1.4 [1]", "value": "no binding"},
      {"measurement": "binding result", "setting": "GST-WWP1.2 [2]", "value": "no binding"},
      {"measurement": "binding result", "setting": "GST-WWP1.3 [3]", "value": "no binding"}
    ]},
    {"binder": "AGLTPPPGYLSEDG (not fully specified (N-terminus); also: biotin with C6 linker, end not given here, also called Smad 3 peptide)", "note": "[Smad3 PY motif peptide AGLTPPPGYLSEDG]", "values": [
      {"measurement": "binding result", "setting": "GST-WWP1.1 [12]", "value": "no binding"},
      {"measurement": "binding result", "setting": "GST-WWP1.4 [1]", "value": "no binding"},
      {"measurement": "binding result", "setting": "GST-WWP1.2 [2]", "value": "no binding"},
      {"measurement": "binding result", "setting": "GST-WWP1.3 [3]", "value": "no binding"}
    ]}
  ]
}
